# Patent US20170355766A1 (Xencor, published 2017)
# T1: human FcγRIIb receptor protein (R&D Systems) (human, UniProt P31994 46-217)
# T1 construct: Analyte injected over antibodies captured on a protein A/G chip (Biacore); also called CD32b
# T1 sequence (looked up): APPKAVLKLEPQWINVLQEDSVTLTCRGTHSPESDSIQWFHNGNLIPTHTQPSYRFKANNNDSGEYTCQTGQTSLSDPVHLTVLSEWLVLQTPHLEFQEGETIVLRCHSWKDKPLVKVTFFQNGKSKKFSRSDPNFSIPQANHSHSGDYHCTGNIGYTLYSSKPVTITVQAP
# Target: T1, human FcγRIIb receptor protein (R&D …)
# Test: SPR (Biacore)
# Description: Variants were screened for receptor affinity using Biacore™ technology, also referred to as Biacore herein, a surface plasmon resonance (SPR) based technology for studying biomolecular interactions in real time. SPR measurements were performed using a Biacore 3000 instrument (Biacore, Piscataway, N.J.). A protein A/G (Pierce Biotechnology) CM5 biosensor chip (Biacore) was generated using a standard primary amine coupling protocol. All measurements were performed using HBS-EP buffer (10 mM HEPES pH 7.4, 0.15 M NaCl, 3 mM EDTA, 0.005% vol/vol surfactant P20, Biacore). Antibodies at 20 nM or 50 nM in HBS-EP buffer were immobilized on the protein A/G surface and FcγRs were injected. After each cycle, the surface was regenerated by injecting glycine buffer (10 mM, pH 1.5). Data were processed by zeroing time and response before the injection of FcγR and by subtracting appropriate nonspecific signals (response of reference channel and injection of running buffer). Kinetic analyses were performed by global fitting of binding data with a 1:1 Langmuir binding model using BIAevaluation software (Biacore).
Fold FcγRIIb,binding result,Binder
0.0635 fold,,"A330S (antibody, human IgG1, kappa, HuAM4G7 IgG1 Fc variant) heavy: not shown light: DIVMTQSPATLSLSPGERATLSCRSSKSLQNVNGNTYLYWFQQKPGQSPQLLIYRMSNLNSGVPDRFSGSGSGTEFTLTISSLEPEDFAVYYCMQHLEYPITFGAGTKLEIKRTVAAPSVFIFPPSDEQLKSGTASVVCLLNNFYPREAKVQWKVDNALQSGNSQESVTEQDSKDSTYSLSSTLTLSKADYEKHKVYACEVTHQGLSSPVTKSFNRGEC"
1.55 fold,,"A330K (antibody, human IgG1, kappa, HuAM4G7 IgG1 Fc variant) heavy: not shown light: DIVMTQSPATLSLSPGERATLSCRSSKSLQNVNGNTYLYWFQQKPGQSPQLLIYRMSNLNSGVPDRFSGSGSGTEFTLTISSLEPEDFAVYYCMQHLEYPITFGAGTKLEIKRTVAAPSVFIFPPSDEQLKSGTASVVCLLNNFYPREAKVQWKVDNALQSGNSQESVTEQDSKDSTYSLSSTLTLSKADYEKHKVYACEVTHQGLSSPVTKSFNRGEC"
11.6 fold,,"G236D/H268D (antibody, human IgG1, kappa, HuAM4G7 IgG1 Fc variant) heavy: not shown light: DIVMTQSPATLSLSPGERATLSCRSSKSLQNVNGNTYLYWFQQKPGQSPQLLIYRMSNLNSGVPDRFSGSGSGTEFTLTISSLEPEDFAVYYCMQHLEYPITFGAGTKLEIKRTVAAPSVFIFPPSDEQLKSGTASVVCLLNNFYPREAKVQWKVDNALQSGNSQESVTEQDSKDSTYSLSSTLTLSKADYEKHKVYACEVTHQGLSSPVTKSFNRGEC"
,no binding,"A330H (antibody, human IgG1, kappa, HuAM4G7 IgG1 Fc variant) heavy: not shown light: DIVMTQSPATLSLSPGERATLSCRSSKSLQNVNGNTYLYWFQQKPGQSPQLLIYRMSNLNSGVPDRFSGSGSGTEFTLTISSLEPEDFAVYYCMQHLEYPITFGAGTKLEIKRTVAAPSVFIFPPSDEQLKSGTASVVCLLNNFYPREAKVQWKVDNALQSGNSQESVTEQDSKDSTYSLSSTLTLSKADYEKHKVYACEVTHQGLSSPVTKSFNRGEC"

# The remaining lines, values behind:
Binder,Fold FcγRIIb,binding result
"A327D/L328Y/I332E (antibody, human IgG1, kappa, HuAM4G7 IgG1 Fc variant) heavy: EVQLVESGGGLVKPGGSLKLSCAASGYTFTSYVMHWVRQAPGKGLEWIGYINPYNDGTKYNEKFQGRVTISSDKSISTAYMELSSLRSEDTAMYYCARGTYYYGTRVFDYWGQGTLVTVSSASTKGPSVFPLAPSSKSTSGGTAALGCLVKDYFPEPVTVSWNSGALTSGVHTFPAVLQSSGLYSLSSVVTVPSSSLGTQTYICNVNHKPSNTKVDKKVEPKSCDKTHTCPPCPAPELLGGPSVFLFPPKPKDTLMISRTPEVTCVVVDVSHEDPEVKFNWYVDGVEVHNAKTKPREEQYNSTYRVVSVLTVLHQDWLNGKEYKCKVSNKDYPAPEEKTISKAKGQPREPQVYTLPPSREEMTKNQVSLTCLVKGFYPSDIAVEWESNGQPENNYKTTPPVLDSDGSFFLYSKLTVDKSRWQQGNVFSCSVMHEALHNHYTQKSLSLSPGK light: DIVMTQSPATLSLSPGERATLSCRSSKSLQNVNGNTYLYWFQQKPGQSPQLLIYRMSNLNSGVPDRFSGSGSGTEFTLTISSLEPEDFAVYYCMQHLEYPITFGAGTKLEIKRTVAAPSVFIFPPSDEQLKSGTASVVCLLNNFYPREAKVQWKVDNALQSGNSQESVTEQDSKDSTYSLSSTLTLSKADYEKHKVYACEVTHQGLSSPVTKSFNRGEC",2.31 fold,
"G237H (antibody, human IgG1, kappa, HuAM4G7 IgG1 Fc variant) heavy: not shown light: DIVMTQSPATLSLSPGERATLSCRSSKSLQNVNGNTYLYWFQQKPGQSPQLLIYRMSNLNSGVPDRFSGSGSGTEFTLTISSLEPEDFAVYYCMQHLEYPITFGAGTKLEIKRTVAAPSVFIFPPSDEQLKSGTASVVCLLNNFYPREAKVQWKVDNALQSGNSQESVTEQDSKDSTYSLSSTLTLSKADYEKHKVYACEVTHQGLSSPVTKSFNRGEC",,no binding
"A327L (antibody, human IgG1, kappa, HuAM4G7 IgG1 Fc variant) heavy: not shown light: DIVMTQSPATLSLSPGERATLSCRSSKSLQNVNGNTYLYWFQQKPGQSPQLLIYRMSNLNSGVPDRFSGSGSGTEFTLTISSLEPEDFAVYYCMQHLEYPITFGAGTKLEIKRTVAAPSVFIFPPSDEQLKSGTASVVCLLNNFYPREAKVQWKVDNALQSGNSQESVTEQDSKDSTYSLSSTLTLSKADYEKHKVYACEVTHQGLSSPVTKSFNRGEC",,no binding
"G236L (antibody, human IgG1, kappa, HuAM4G7 IgG1 Fc variant) heavy: not shown light: DIVMTQSPATLSLSPGERATLSCRSSKSLQNVNGNTYLYWFQQKPGQSPQLLIYRMSNLNSGVPDRFSGSGSGTEFTLTISSLEPEDFAVYYCMQHLEYPITFGAGTKLEIKRTVAAPSVFIFPPSDEQLKSGTASVVCLLNNFYPREAKVQWKVDNALQSGNSQESVTEQDSKDSTYSLSSTLTLSKADYEKHKVYACEVTHQGLSSPVTKSFNRGEC",,no binding
"G236S/G237A (antibody, human IgG1, kappa, HuAM4G7 IgG1 Fc variant) heavy: not shown light: DIVMTQSPATLSLSPGERATLSCRSSKSLQNVNGNTYLYWFQQKPGQSPQLLIYRMSNLNSGVPDRFSGSGSGTEFTLTISSLEPEDFAVYYCMQHLEYPITFGAGTKLEIKRTVAAPSVFIFPPSDEQLKSGTASVVCLLNNFYPREAKVQWKVDNALQSGNSQESVTEQDSKDSTYSLSSTLTLSKADYEKHKVYACEVTHQGLSSPVTKSFNRGEC",0.0797 fold,
"G236A/G237A (antibody, human IgG1, kappa, HuAM4G7 IgG1 Fc variant) heavy: not shown light: DIVMTQSPATLSLSPGERATLSCRSSKSLQNVNGNTYLYWFQQKPGQSPQLLIYRMSNLNSGVPDRFSGSGSGTEFTLTISSLEPEDFAVYYCMQHLEYPITFGAGTKLEIKRTVAAPSVFIFPPSDEQLKSGTASVVCLLNNFYPREAKVQWKVDNALQSGNSQESVTEQDSKDSTYSLSSTLTLSKADYEKHKVYACEVTHQGLSSPVTKSFNRGEC",0.0578 fold,
"G236Y (antibody, human IgG1, kappa, HuAM4G7 IgG1 Fc variant) heavy: not shown light: DIVMTQSPATLSLSPGERATLSCRSSKSLQNVNGNTYLYWFQQKPGQSPQLLIYRMSNLNSGVPDRFSGSGSGTEFTLTISSLEPEDFAVYYCMQHLEYPITFGAGTKLEIKRTVAAPSVFIFPPSDEQLKSGTASVVCLLNNFYPREAKVQWKVDNALQSGNSQESVTEQDSKDSTYSLSSTLTLSKADYEKHKVYACEVTHQGLSSPVTKSFNRGEC",,no binding
"G237L (antibody, human IgG1, kappa, HuAM4G7 IgG1 Fc variant) heavy: not shown light: DIVMTQSPATLSLSPGERATLSCRSSKSLQNVNGNTYLYWFQQKPGQSPQLLIYRMSNLNSGVPDRFSGSGSGTEFTLTISSLEPEDFAVYYCMQHLEYPITFGAGTKLEIKRTVAAPSVFIFPPSDEQLKSGTASVVCLLNNFYPREAKVQWKVDNALQSGNSQESVTEQDSKDSTYSLSSTLTLSKADYEKHKVYACEVTHQGLSSPVTKSFNRGEC",,no binding
"A330D (antibody, human IgG1, kappa, HuAM4G7 IgG1 Fc variant) heavy: not shown light: DIVMTQSPATLSLSPGERATLSCRSSKSLQNVNGNTYLYWFQQKPGQSPQLLIYRMSNLNSGVPDRFSGSGSGTEFTLTISSLEPEDFAVYYCMQHLEYPITFGAGTKLEIKRTVAAPSVFIFPPSDEQLKSGTASVVCLLNNFYPREAKVQWKVDNALQSGNSQESVTEQDSKDSTYSLSSTLTLSKADYEKHKVYACEVTHQGLSSPVTKSFNRGEC",,no binding
"G236I (antibody, human IgG1, kappa, HuAM4G7 IgG1 Fc variant) heavy: not shown light: DIVMTQSPATLSLSPGERATLSCRSSKSLQNVNGNTYLYWFQQKPGQSPQLLIYRMSNLNSGVPDRFSGSGSGTEFTLTISSLEPEDFAVYYCMQHLEYPITFGAGTKLEIKRTVAAPSVFIFPPSDEQLKSGTASVVCLLNNFYPREAKVQWKVDNALQSGNSQESVTEQDSKDSTYSLSSTLTLSKADYEKHKVYACEVTHQGLSSPVTKSFNRGEC",,no binding
